Columns and labels:
[1] = target: T1, Homo sapiens factor Bb protein (human, UniProt P00751 260-764); test: cell-based or functional assay
[2] = target: T1, Homo sapiens factor Bb protein; test: SPR single cycle kinetics; ratio against VH0/Vκ0
Description: In order to assess the binding of all humanized variants, single cycle kinetic analysis was performed on supernatants from transfected cell cultures. […] All single cycle kinetic experiments were run at 25° C. with HBS-P+running buffer (pH 7. 4) (GE Healthcare, Little Chalfont, UK).
Antibodies were diluted in running buffer to a final concentration of 1 μg/ml, based on concentrations assessed by ELISA titer. At the start of each cycle, antibodies were loaded onto Fc2, Fc3 and Fc4 of the Protein A chip (GE Healthcare, Little Chalfont, UK). IgGs were captured at a flow rate of 10 μl/min to give an immobilization level (RL) of ˜63 RU, the theoretical value to obtain an Rmax of ˜50 RU. The surface was then allowed to stabilize. Single cycle kinetic data was obtained with factor Bb (CompTech, Tyler, USA) as the analyte at a flow rate of 30 μl/min to minimize any potential mass transport limitations. Multiple repeats with the reference chimeric antibody were performed to check the stability of the surface and analyte over the kinetic cycles. The signal from the reference channel Fc1 (no antibody) was subtracted from that of Fc2, Fc3 and Fc4 to correct for differences in non-specific binding to a reference surface. A four point, two-fold dilution range from 0. 78 nM to 6. 25 nM factor Bb without regeneration between each concentration was used. The association phase for the four injections of increasing concentrations of factor Bb was monitored for 200 seconds each time and a single dissociation phase was measured for 200 seconds following the last injection of factor Bb. Regeneration of the Protein A surface was conducted using two injections of 10 mM glycine-HCL pH 1. 5.
The sensorgrams and fitted data for the single cycle kinetics are shown in FIGS. 1A-1D and the kinetic parameters measured for the interaction of factor Bb with each antibody are shown in Table 7. The relative KD was calculated by dividing the KD of the VH0/Vκ0 reference antibody by that of the humanized variant assayed in the same experiment.

[3] = target: T1, Homo sapiens factor Bb protein; test: competition ELISA on coated factor Bb; competitor murine parental antibody
Description: Factor Bb was diluted in 1× PBS to 1.0 μg/ml and 100 μl/well was coated overnight at 4° C. on a 96-well ELISA plate. The following day the plates were blocked for two hours at room temperature with 1% casein/PBS before washing 2× with PBS pH 7.4. In a 96-well dilution plate a fixed concentration of murine parental antibody (0.5 μg/ml, final concentration) was added in equal volume to a four-fold titration series of test antibody (starting from 45 μg/ml to 0.01 μg/ml, final concentration) diluted in blocking buffer. After washing the plate 3× with PBS-T, 100 μl of chimeric/test antibody mix was added to the ELISA plate. After incubating at room temperature for one hour, the plate was washed 3× with PBS-T and 100 μl of anti-mouse IgG Fc-Specific HRP (Sigma, Dorset, UK) diluted 1:1000 in PBS-T was applied for one hour at room temperature to detect bound mouse antibody. For color development, the plate was washed 3× with PBS-T following which 100 μl of TMB substrate was added and incubated for approximately five minutes at room temperature. The reaction was stopped with 50 μl of 3.0 M hydrochloric acid and absorbance was read immediately using a DYNEX ® plate reader at 450 nm.
IC50 values were calculated for each variant and relative IC50 values were calculated by dividing the IC50 of the humanized variant by that of the chimeric antibody assayed on the same plate (Table 11).

T1 sequence (P00751 260-764 limits assumed): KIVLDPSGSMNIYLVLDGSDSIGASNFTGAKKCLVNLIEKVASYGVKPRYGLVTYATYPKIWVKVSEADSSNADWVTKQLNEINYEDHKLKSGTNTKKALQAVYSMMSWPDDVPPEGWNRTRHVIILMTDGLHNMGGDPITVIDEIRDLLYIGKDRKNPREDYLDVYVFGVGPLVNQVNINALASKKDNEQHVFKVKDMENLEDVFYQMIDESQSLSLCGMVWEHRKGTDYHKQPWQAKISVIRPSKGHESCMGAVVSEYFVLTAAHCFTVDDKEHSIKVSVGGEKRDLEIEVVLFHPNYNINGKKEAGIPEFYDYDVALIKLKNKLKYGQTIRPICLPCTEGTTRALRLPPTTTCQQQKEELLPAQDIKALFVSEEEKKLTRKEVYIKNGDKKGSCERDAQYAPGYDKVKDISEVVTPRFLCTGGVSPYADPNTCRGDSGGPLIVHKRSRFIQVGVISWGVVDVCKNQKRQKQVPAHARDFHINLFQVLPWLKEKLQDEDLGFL

B1: VH0/Vκ0 (Chimeric) (antibody, V domains shown)
VH: EVQLVESGGALVKPGGSLKLSCAASGFTFSNYAMSWVRQTPEKRLEWVATISNRGSYTYYPDSVKGRFTISRDNAKNTLYLQMSSLRSEDTALYYCARERPMDYWGQGTSVTVSS
VL: DIVMTQSHKFMSTSVGDRVSITCKASQDVGTAVAWYQQKPGQSPKLLIYWASTRHTGVPDRFTGSGSGTDFTLTITNVQSEDLAVYFCHQHSSNPLTFGAGTKLELK
notes: also called chimeric antibody
AP Assay IC50 [1]: 24 nM | Relative KD [2]: 1 | IC50 [3]: 1.23 nM
